For the assay, the target named is Ab42 oligomers (formed during the in vitro aggregation reaction of Ab42). Nature of the assay: time-course indirect ELISA on samples of the Ab42 aggregation reaction.
Sequence of Ab42 oligomers (formed during the in vitro aggregation reaction of Ab42) (peptide, as listed by the source): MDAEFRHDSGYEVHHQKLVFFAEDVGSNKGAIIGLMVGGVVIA

B1: DesAb-O (VHH)
VHH: EVQLVESGGGLVQPGGSLRLSCAASGFNIKDTYIGWVRRAPGKGEEWVASIYPTNGYTRYADSVKGRFTISADTSKNTAYLQMNSLRAEDTAVYYCAAGSESAFGRAEEEAAAWGQGTLVTVSS
B1: the fold of ELISA absorbance at 1 hour of incubation over the initial time of aggregation is 3 fold.

For the origin of these results see patent WO2021032966A1.
